Experimental findings from article PMC2754381 are described below.

Substrate in data set [1]: O=C(O)c1cc(=O)[nH]c(=O)n1[C@@H]1O[C@H](COP(=O)(O)O)[C@@H](O)[C@H]1O
As to the kind of experiment: purified protein. The note with it: 25 °C, pH 7.1, 10 mM MOPS, I = 0.1 (NaCl). The format is biochemical, Methanothermobacter thermautotrophicus.

Substrate in data set [2]: O=C(O)c1cc(=O)[nH]c(=O)n1[C@@H]1O[C@H](COP(=O)(O)O)[C@@H](O)[C@H]1O
Kind of data set: purified protein. The format is biochemical, Saccharomyces cerevisiae. The note with it: 25 °C, pH 7.1, 10 mM MOPS, I = 0.1 (NaCl).

B1: MtOMPDC (wildtype OMPDC from Methanothermobacter thermautotrophicus) (Methanothermobacter thermautotrophicus str. Delta H) (protein)
chain: MRSRRVDVMDVMNRLILAMDLMNRDDALRVTGEVREYIDTVKIGYPLVLSEGMDIIAEFRKRFGCRIIADFKVADIPETNEKICRATFKAGADAIIVHGFRGADSVRACLNVAEEMGREVFLLTEMSHPGAEMFIQGAADEIARMGVDLGVKNYVGPSTRPERLSRLREIIGQDSFLISPGVGAQGGDPGETLRFADAIIVGRSIYLADNPAAAAAGIIESIKDLLNP
Regarding B1, in “purified protein [1]”, the Km was found to be 1.5 ± 0.2 µM, the kcat was 4.7 ± 0.3 s⁻¹ and the kcat/Km came to 3.1e+06 ± 300000 M⁻¹ s⁻¹.

B2: ScOMPDC (C155S mutant OMPDC from Saccharomyces cerevisiae) (Saccharomyces cerevisiae S288C; C155S) (protein)
chain: MSKATYKERAATHPSPVAAKLFNIMHEKQTNLCASLDVRTTKELLELVEALGPKICLLKTHVDILTDFSMEGTVKPLKALSAKYNFLLFEDRKFADIGNTVKLQYSAGVYRIAEWADITNAHGVVGPGIVSGLKQAAEEVTKEPRGLLMLAELSSKGSLATGEYTKGTVDIAKSDKDFVIGFIAQRDMGGRDEGYDWLIMTPGVGLDDKGDALGQQYRTVDDVVSTGSDIIIVGRGLFAKGRDAKVEGERYRKAGWEAYLRRCGQQN
As to B2, in “purified protein [2]”, the Km was determined as 1.4 ± 0.2 µM, the kcat came to 15 ± 1 s⁻¹ and the kcat/Km came to 1.1e+07 ± 1e+06 M⁻¹ s⁻¹.

In general, Km refers to the substrate concentration at which the rate is half of its maximum. For orientation: kcat means the number of substrate molecules converted per active site and unit of time at saturation. What is called kcat/Km is the second-order rate constant that governs catalysis at low substrate concentration.
